Measured values as given in patent publication US20150377889A1, “GALECTIN-3 AS A MARKER FOR PROSTATE CANCER” (Wayne State University, priority 2013, published 2015).

Assays:
[1] = test system: co-cultured BAMEC and LNCaP cells; assay: Three-dimensional growth and tube formation assay, BAMEC/LNCaP co-culture on […]; assay type: cell-based, bovine, human
Procedure: Three-dimensional Growth and Tube Formation Assay. To analyze in vitro angiogenesis and interactions between epithelial and endothelial cell formation of tubular networks by co-cultured BAMEC and LNCaP cells, a three-dimensional growth and tube formation assay was performed. Briefly, […]® (10 μl) was added to each chamber of the slide (μ-Slide, ibidi, Martinsried, Germany) and gelled by a 30-min incubation at room temperature, after which 15,000 BAMEC and 5000 LNCaP cells were plated onto the gel in 50 μl of Eagle's minimal essential complete medium. In some chambers, full-length galectin-3 or its fragments were added. After 36 hr, three-dimensional structures were observed under phase contrast microscope and photographed. Images were acquired with an Olympus IX71 microscope supporting a Hamamatsu ORCA-ER video camera. Tube formation image analysis was done using the web-based Image Analysis Win-Tube module of Wimasis online software.
Three-dimensional heterotypic co-cultures of epithelial (LNCaP) and endothelial (BAMEC) cells were performed on […]® to study tube formation in the presence of 10 μg/ml galectin-3 and its fragments. […] FIG. 2B presents a quantitative evaluation of the tube formation assay.

[2] = test system: LNCaP, Du145, and PC3M cell lines; assay: Wound-healing (scratch) assay; assay type: cell-based, human; conditions: 24 hr, compared with the control
Procedure: Wound-healing Assay. A wound-healing assay, the scratch assay, was performed according to the protocol published in Liang, et al. (2007), Nat. Protoc. 2, 329-333. Briefly, in this scratch assay 60-mm dishes were coated with ECM and incubated overnight, unbound ECM was removed and the dishes were blocked with bovine serum albumin. Subconfluent growing cells were resuspended in a tissue culture dish by washing cells with PBS, adding versene containing trypsin, and mixing cells with medium containing serum. Cells were then plated onto the prepared 60-mm dish to create a confluent monolayer, and incubated for 6 hr at 37° C.
The cell lines LNCaP (null galectin-3), DU145 (stable clone with reduced galectin-3 expression), and PC3M were used to examine the effect of full-length galectin-3, galectin-3 1-107, and galectin-3 108-250 on prostate cancer cell motility using the scratch assay. The assay was performed with LNCaP, Du145, and PC3M cultured cell lines stimulated by full-length galectin-3, and fragments galectin-3 1-107 and 108-250. A uniform wound was made in each plate using a 1-μl pipette tip. The wound area was observed immediately, then at 24 hr after creation the cells were counted. Cells were grown under identical conditions.

B1: galectin-3 1-107: recombinant fragment 1-107 of human galectin-3 (SEQ ID NO:2), NH2-terminal domain with collagen-like sequence (protein, listed as Homo sapiens)
chain: MADNFSLHDALSGSGNPNPQGWPGAWGNQPAGAGGYPGASYPGAYPGQAPPGAYPGQAPPGAYPGAPGAYPGAPAPGVYPGPPSGPGAYPSSGQPSATGAYPATGPY
[1]; 10 μg/ml protein added to medium, 36 hr, control 0
  tube formation: loops: 0
[1]; 10 μg/ml protein, BAMEC/LNCaP co-culture
  branching morphogenesis of endothelial cells: failed to do so
[2]
  prostate cancer cell motility: did not show a significant increase in motility
